Experimental data published in PMC9191643, “Cryo-EM structure of DNA-bound Smc5/6 reveals DNA clamping enabled by multi-subunit conformational changes”.

Molecular target: Smc5 (E1015Q);Smc6 (E1048Q);Nse1;Nse2;Nse3;Nse4 (Saccharomyces cerevisiae;Saccharomyces …, UniProt Q08204;Q12749;Q07913;P38632;Q05541;P43124 1-1093;1-1114;1-336;1-267;1-303;1-402, E1015Q|E1048Q||||)
Test: cryo-EM structure (3.8 A); 1 mM ATP, 2 mM MgCl2; 0.3 mg/mL complex, 1.5 uM DNA; Cryo-EM sample: 1 mM ATP, 2 mM MgCl2, 1.5 uM dsDNA, 4 C, 2 h; complex from size exclusion in 25 mM Hepes pH 7.5, 250 mM NaCl, 1 mM DTT (final binding buffer not stated)
Details: protein: recombinant;recombinant;recombinant;recombinant;recombinant;recombinant; copies: 1;1;1;1;1;1; blunt

B1: cryo-EM dsDNA (dsDNA)
DNA 1: TGGTTTTTATATGTTTTGTTATGTATTGTTTATTTTCCCTTTAATTTTAGGATATGAAAACAAGAATTTATC
DNA 2: GATAAATTCTTGTTTTCATATCCTAAAATTAAAGGGAAAATAAACAATACATAACAAAACATATAAAAACCA
B1: binds.
